PMC11180174 (Nature Communications, 2024)

B1: LY-CoV1404 (also known as bebtelovimab) (antibody, V domains shown)
VH: QITLKESGPTLVKPTQTLTLTCTFSGFSLSISGVGVGWLRQPPGKALEWLALIYWDDDKRYSPSLKSRLTISKDTSKNQVVLKMTNIDPVDTATYYCAHHSISTIFDHWGQGTLVTVSS
VL: QSALTQPASVSGSPGQSITISCTATSSDVGDYNYVSWYQQHPGKAPKLMIFEVSDRPSGISNRFSGSKSGNTASLTISGLQAEDEADYYCSSYTTSSAVFGGGTKLTVL
notes: control antibody
B2: neutralizing antibody 7F3 (antibody, V domains shown)
VH: EVQLVESGGGLVKPGRSLRLSCTASGFTFGDYAMSWFRQAPGKGLEWVGFIRSKAYGGTTEYAASVKGRFTISRDDSKSIAYLQMNSLKTEDTAVYYCTRDRYARYDILTGLSPAGADYFYYAMDVWGQGTTVTVSS
VL: EIVLTQSPATLSLSPGERATLSCRASQSVSSYLAWYQQKPGQAPRLLIYDASNRATGIPARFSGSGSGTDFTLTISSLEPEDFAVYYCQQRSNWPQYTFGQGTKLEIK
B3: 7F3 neutralizing antibody (IgG) (antibody, V domains shown)
VH: B2 VH
VL: B2 VL
B4: LY-CoV1404 (bebtelovimab) (antibody, V domains shown)
VH: B1 VH
VL: B1 VL

How the values were obtained:
[1] = biological target: T1, SARS-CoV-2 (Wuhan-Hu-1 strain) wild-type RBD, His-tagged (SARS-CoV-2 Wuhan-Hu-1 (MN908947.3), UniProt P0DTC2); assay: BLI; details: both partners purified
T1 construct: source: HEK293F, transiently transfected, purified (Ni Sepharose); not shown: 8xHis, C-terminal, kept

[2] = biological target: T2, SARS-CoV-2 (Wuhan-Hu-1 strain) wild-type spike RBD-His (SARS-CoV-2 Wuhan-Hu-1 (MN908947.3), UniProt P0DTC2); assay: BLI; details: both partners purified
T2 construct: source: HEK293F, transfected, purified (Ni Sepharose); not shown: His8, C-terminal, kept

Binder	Kd [1] [pM]	koff [1] [s⁻¹]	kon [1] [M⁻¹ s⁻¹]	Kd [2] [pM]	koff [2] [s⁻¹]	kon [2] [M⁻¹ s⁻¹]
B1	< 1	< 1e-07	79100	–	–	–
B2	< 1	< 1e-07	192000	–	–	–
B3	–	–	–	< 1	< 1e-07	192000
B4	–	–	–	< 1	< 1e-07	79100
